Laboratory results reported in PMC11826994.

Legend:
[1] = target: full-length histone H4 with L-isoaspartate at position 24 (H4isoD24), semisynthetic (UniProt P62805)
[2] = target: full-length histone H4 with the canonical Asp at position 24 (H4D24), semisynthetic (UniProt P62805)

Row | k (1,obs), rate of H4K20 monomethylation by Set8 on 12-mer nucleosome arrays containing H4isoD24 (with Suv4-20h1 and AdoMet; HRMS) [1] [min^–1] | k (1,obs), rate of H4K20 monomethylation by Set8 on 12-mer nucleosome arrays containing H4D24 (with Suv4-20h1 and AdoMet; HRMS) [2] [min^–1] | k (2,obs), rate of H4K20me1 to H4K20me2 methylation by Suv4-20h1 on 12-mer nucleosome arrays containing H4isoD24 (with Set8 and AdoMet; HRMS) [1] [min^–1] | k (2,obs), rate of H4K20me1 to H4K20me2 methylation by Suv4-20h1 on 12-mer nucleosome arrays containing H4D24 (with Set8 and AdoMet; HRMS) [2] [min^–1] | Substance
1 | 0.0016 | 0.0059 |  |  | methyltransferase Set8 (from UniProt Q9NQR1 1-393) (enzyme)
2 |  |  | 0.002 | 0.033 | methyltransferase Suv4-20h1 (from UniProt Q4FZB7 1-885) (enzyme)
